Four molecules from US20250270341A1 (Alector, published 2025) can be followed below.

For experiment [1], the target named is T1, huCD98hc ECD Avi-His (human, UniProt P08195 105-529).
T1 construct: biotinylated on the Avi tag where captured on streptavidin; also called Human CD98-AVI-His; Human CD98hc-AVI-His
T1 sequence: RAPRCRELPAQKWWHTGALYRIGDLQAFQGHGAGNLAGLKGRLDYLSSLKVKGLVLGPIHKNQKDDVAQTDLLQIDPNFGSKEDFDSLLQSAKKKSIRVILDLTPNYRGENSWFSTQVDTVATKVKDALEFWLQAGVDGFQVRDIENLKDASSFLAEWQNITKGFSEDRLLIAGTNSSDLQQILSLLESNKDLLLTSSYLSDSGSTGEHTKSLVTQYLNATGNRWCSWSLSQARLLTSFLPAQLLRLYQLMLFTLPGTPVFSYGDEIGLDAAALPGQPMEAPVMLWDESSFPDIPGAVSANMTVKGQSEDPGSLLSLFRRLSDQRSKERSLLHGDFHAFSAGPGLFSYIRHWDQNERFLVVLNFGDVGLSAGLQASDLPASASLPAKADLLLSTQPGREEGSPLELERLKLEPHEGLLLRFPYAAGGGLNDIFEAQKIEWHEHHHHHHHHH
Briefly: SPR, Biacore T200, anti-kappa capture. As to the method:
(§1) Binding kinetics of 2+1 anti-CD98hc bispecific antibodies to recombinant human and cynomolgus CD98hc ECD Avi-His were evaluated using a Biacore T200 instrument (Global Life Sciences Solutions USA LLC, Marlborough, MA). The 2+1 anti-CD98hc bispecific antibodies were prepared by diluting to 50 μg/mL in running buffer HBS-EP+ (Teknova) with 0.5 mg/mL BSA (MP Biomedicals) and captured by a goat anti-human kappa polyclonal antibody (Southern Biotech) surface that was prepared according to the instrument manufacturer's recommendations. Two independent experiments were performed as follows, resulting in an N of between one and […] determinations for each antibody. Estimates of affinity were generated by injecting each analyte over captured antibody on Flowcell 2, 3, or 4. CD98hc ECD Avi-His analytes were diluted with running buffer, in a series of five, three-fold serial dilutions starting from 600 nM. Analytes were injected without regeneration, from lowest to highest concentration, for 5 minutes each, and dissociation was followed for 15 minutes. After each analyte injection series, antibodies were regenerated with 10 mM glycine pH 2.0 buffer (Cytiva). Data were processed and analyzed using Biacore T200 BiaEvaluation software (Cytiva).
(§2) The equilibrium dissociation constants (KD) were calculated from the fitted association and dissociation rate constants (k-on and k-off) for 2+1 anti-CD98hc bispecific antibodies of the present disclosure binding to human and cynomolgus CD98hc ECD Avi-His. For measurements with N>1, means and standard deviation were calculated and measurements for all samples were combined and graphed using GraphPad Prism.
(In general: In SPR one partner is held on a chip, and binding of the other changes the refractive index at the surface.)

Experiment [2] concerns the target T2, Cyno CD98hc ECD Avi-His (cynomolgus macaque, UniProt P08195 105-529 (human entry)).
T2 construct: biotinylated on the Avi tag where captured on streptavidin; also called Cyno CD98-AVI-His; Cyno CD98hc-AVI-His
T2 chain: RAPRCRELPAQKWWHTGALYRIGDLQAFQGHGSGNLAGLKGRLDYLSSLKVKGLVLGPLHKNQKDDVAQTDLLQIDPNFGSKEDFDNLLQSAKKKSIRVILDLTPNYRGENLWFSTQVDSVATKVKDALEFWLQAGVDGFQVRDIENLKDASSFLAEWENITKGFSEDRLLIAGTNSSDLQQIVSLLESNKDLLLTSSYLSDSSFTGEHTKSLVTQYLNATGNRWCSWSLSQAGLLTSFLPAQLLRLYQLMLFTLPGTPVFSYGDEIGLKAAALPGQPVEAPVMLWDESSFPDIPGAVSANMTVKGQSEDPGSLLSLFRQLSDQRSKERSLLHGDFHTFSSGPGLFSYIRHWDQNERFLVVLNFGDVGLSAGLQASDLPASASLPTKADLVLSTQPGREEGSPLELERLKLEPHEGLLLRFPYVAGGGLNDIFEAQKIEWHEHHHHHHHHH
Briefly: SPR, Biacore T200, anti-kappa capture. As to the method:
as §1, §2

Experiment [3] has as its target T3, Full length mouse CD98hc on CHO cells (mouse, UniProt P10852 1-526).
T3 construct: CHO cells stably overexpressing it; also called CHO-mouse CD98hc; CHO-mCD98hc
T3 sequence: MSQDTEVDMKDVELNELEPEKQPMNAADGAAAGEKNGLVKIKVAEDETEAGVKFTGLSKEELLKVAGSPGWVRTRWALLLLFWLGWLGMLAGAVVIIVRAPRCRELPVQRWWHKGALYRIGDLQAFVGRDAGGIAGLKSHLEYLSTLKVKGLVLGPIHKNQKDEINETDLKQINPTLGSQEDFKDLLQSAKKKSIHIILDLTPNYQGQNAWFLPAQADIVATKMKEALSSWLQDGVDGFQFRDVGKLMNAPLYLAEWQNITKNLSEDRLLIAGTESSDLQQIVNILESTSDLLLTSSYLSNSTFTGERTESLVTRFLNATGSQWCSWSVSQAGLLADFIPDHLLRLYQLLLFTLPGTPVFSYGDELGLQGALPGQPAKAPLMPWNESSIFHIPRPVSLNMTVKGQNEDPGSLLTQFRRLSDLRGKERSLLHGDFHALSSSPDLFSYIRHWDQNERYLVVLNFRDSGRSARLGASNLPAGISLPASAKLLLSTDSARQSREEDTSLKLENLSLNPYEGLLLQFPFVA
In words: FACS, hybridoma supernatant.

Experiment [4] deals with T4, muCD98hc ECD Avi-His (mouse, UniProt P10852 100-526).
T4 construct: biotinylated on the Avi tag where captured on streptavidin; also called Mouse CD98-AVI-His; Mouse CD98hc-AVI-His
T4 sequence: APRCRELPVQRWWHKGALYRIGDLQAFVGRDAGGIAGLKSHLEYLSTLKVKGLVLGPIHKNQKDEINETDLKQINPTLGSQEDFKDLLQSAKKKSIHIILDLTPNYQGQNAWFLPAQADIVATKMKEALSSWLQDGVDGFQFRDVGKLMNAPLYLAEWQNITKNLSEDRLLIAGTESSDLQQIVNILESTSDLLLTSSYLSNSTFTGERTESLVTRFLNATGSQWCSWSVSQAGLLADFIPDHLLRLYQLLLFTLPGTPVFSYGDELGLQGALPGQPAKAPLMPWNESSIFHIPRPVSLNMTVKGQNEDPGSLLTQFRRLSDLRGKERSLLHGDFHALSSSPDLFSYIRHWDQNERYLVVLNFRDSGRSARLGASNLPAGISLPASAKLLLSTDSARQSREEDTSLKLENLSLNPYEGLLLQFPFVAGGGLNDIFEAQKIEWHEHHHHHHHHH
In words: ELISA, hybridoma supernatant. As to the method: (§3) Briefly, 96-well polystyrene plates were coated with 5 μg/ml of streptavidin (Thermo Fisher, Cat #PI21125) in coating buffer (0.05M carbonate buffer, pH 9.6, Sigma, Cat #C3041) overnight at 4° C. Coated plates were then blocked with ELISA diluent (PBS+0.5% BSA+0.05% Tween20) for one hour. Blocking buffer was removed and human, cyno, or mouse Avi-His-tagged CD98hc and Avi-His-tagged human TfR polypeptides were added at 1 μg/ml in ELISA diluent and captured for 1 hour at room temperature. After washing three times with 300 μl of PBST (PBS+0.05% Tween20, Thermo 28352), the hybridoma cell culture supernatants or 1 μg/ml of commercially available purified mouse anti-human CD98hc monoclonal antibody (Sigma Aldrich, Cat #SAB 4700503) and rat anti-mouse CD98hc antibody (Bio-Rad Laboratories, Hercules, CA, Cat #MCA2684) were added (50 μl/well) to each well. After 30 minutes of incubation at room temperature, the plates were washed three times with 300 μl of PBST. […] After a final set of washes (3×300 μl in PBST), 50 μl/well of BioFx TMB substrate (Surmodics, Eden Praire, MN, Cat #TMBW-1000-01) was added to the wells. The reaction was then quenched after 5-10 mins with 50 μl/well of 2N sulfuric acid. The plates were read for absorbance at 450 nm on a SpectraMax M5 (Molecular Devices, Sunnyvale, CA) using SoftMax Pro software.
On the technique in general: In an ELISA, binding on a coated surface is turned into a signal by an enzyme label.

The target in experiment [5] is T5, Human TfR-AVI-His (control) (human, UniProt P02786 89-760).
T5 construct: control protein; also called Avi-His-tagged human TfR; human transferrin receptor
Briefly: ELISA, hybridoma supernatant. Here is the method: as §3

Experiment [6] addresses T3, Full length mouse CD98hc on CHO cells. In words: FACS, hybridoma supernatant. The text has this:
The IgG positive hybridoma supernatants (898 in total) were initially screened for their ability to differentially bind CHO cells overexpressing human or mouse CD98hc cells compared to CHO parental cells by FACS. Overexpressing cells were harvested, washed, and labeled with various concentrations and combinations of CellTrace cell proliferation dyes CFSE and Violet (ThermoFisher, Cat #C34554 and Cat #34557, respectively) to create uniquely barcoded cell populations. Barcoded cells (5×10⁴ of each cell population) were aliquoted into 96-well U-bottom plates and incubated with 50 μl of hybridoma cell culture supernatant or 1 μg/ml of commercially available purified mouse anti-human CD98hc monoclonal antibody (Sigma Aldrich, Cat #SAB 4700503) and rat anti-mouse CD98hc antibody (Bio-Rad Laboratories, Hercules, CA, Cat #MCA2684) on ice for 30 minutes. […] Following this secondary antibody incubation, the cells were again washed twice with ice-cold FACS buffer and resuspended in a final volume of 50 μl of FACS buffer containing 0.25 μl/well propidium iodide (BD Biosciences, Cat #556463). Binding intensity on cells was analyzed using the FACS Canto system (BD Biosciences), with sorting gates drawn to exclude dead (i.e., propidium iodide-positive) cells. For each barcoded cell population, the ratio of APC Mean Fluorescence Intensity (MFI) divided by secondary antibody MFI was calculated for each anti-CD98hc hybridoma supernatant tested and reported in Table 5.
The source holds these as a separate data set. (Flow cytometry measures light scatter and fluorescence of single cells or particles in a stream.)

In experiment [7] the target is T6, Full length human CD98hc on CHO cells (human).
T6 construct: CHO cells stably overexpressing it; also called CHO-human CD98hc; CHO-huCD98hc
T6 chain: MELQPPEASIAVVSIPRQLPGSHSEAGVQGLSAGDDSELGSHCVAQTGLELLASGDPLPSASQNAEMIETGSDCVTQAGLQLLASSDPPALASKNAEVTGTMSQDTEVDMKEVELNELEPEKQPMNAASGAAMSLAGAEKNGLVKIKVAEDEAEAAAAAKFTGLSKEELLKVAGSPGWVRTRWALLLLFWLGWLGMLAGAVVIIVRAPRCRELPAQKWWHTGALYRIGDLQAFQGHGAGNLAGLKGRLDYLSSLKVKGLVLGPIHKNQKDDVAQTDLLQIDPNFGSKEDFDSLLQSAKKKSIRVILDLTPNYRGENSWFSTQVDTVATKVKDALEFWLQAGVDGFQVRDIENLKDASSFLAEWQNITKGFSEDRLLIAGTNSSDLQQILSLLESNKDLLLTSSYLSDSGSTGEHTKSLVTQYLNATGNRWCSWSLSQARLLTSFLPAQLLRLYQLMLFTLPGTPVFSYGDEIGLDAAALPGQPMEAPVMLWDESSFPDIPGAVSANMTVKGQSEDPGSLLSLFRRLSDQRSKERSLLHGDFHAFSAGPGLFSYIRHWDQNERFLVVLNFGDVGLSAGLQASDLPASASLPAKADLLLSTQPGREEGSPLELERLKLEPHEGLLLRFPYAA
Briefly: FACS, hybridoma supernatant.

The target of experiment [8] is T7, human CD98hc endogenously expressed on HCMEC/D3 cells (human).
T7 construct: human brain endothelial cell line
T7 chain: T6 chain
In words: FACS, hybridoma supernatant.

Where a chain is given by its changes, count along the chain named.

T5 sequence (P02786 89-760 limits assumed): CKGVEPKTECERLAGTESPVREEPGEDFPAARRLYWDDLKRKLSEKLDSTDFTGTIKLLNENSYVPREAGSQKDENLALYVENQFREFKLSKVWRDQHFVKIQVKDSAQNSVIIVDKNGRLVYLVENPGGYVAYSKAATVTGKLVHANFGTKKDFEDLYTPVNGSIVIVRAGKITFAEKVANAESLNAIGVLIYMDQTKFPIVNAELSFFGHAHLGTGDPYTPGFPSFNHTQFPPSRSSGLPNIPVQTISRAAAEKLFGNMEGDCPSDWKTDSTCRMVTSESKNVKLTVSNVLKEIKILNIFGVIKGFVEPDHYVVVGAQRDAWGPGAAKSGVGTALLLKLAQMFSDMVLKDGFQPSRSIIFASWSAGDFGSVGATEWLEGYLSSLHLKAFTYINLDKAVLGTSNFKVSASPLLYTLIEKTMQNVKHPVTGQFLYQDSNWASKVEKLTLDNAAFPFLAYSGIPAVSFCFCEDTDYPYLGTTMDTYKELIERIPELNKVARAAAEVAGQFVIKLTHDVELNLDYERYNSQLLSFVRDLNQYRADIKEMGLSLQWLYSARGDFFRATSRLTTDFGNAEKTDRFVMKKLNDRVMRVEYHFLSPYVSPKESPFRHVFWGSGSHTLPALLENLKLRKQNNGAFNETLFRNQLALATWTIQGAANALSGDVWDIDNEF

B1: CD98hc.04.064.1a (humanized, 2+1 format) (bispecific antibody)
scFv: QVQLVQSGAEVKKPGASVKVSCKASGYTFTSYWMNWVRQAPGQGLEWMGIIDPSDSETHYAQKFQGRVTMTVDKSTSTVYMELSSLRSEDTAVYYCARASYGKGYFDYWGQGTLVTVSSGGSEGKSSGSGSESKSTGGSDIVMTQSPDSLAVSLGERATINCKSSQSLLNNINQKNYLAWYQQKPGQPPKLLIYFASTRESGVPDRFSGSGSGTDFTLTISSLQAEDVAVYYCQQHYSSPFTFGGGTKVEIK
notes: tested as 2+1 bispecific (scFv on an IgG)
What is called Kd is a measure of binding affinity in units of concentration. As to B1, the results for the equilibrium dissociation constant (Kd) in experiment [1] and in experiment [2] were 31 nM and 880 nM, respectively.

B2: CD98HC.04.047 (antibody, V domains shown)
VH: EVQLQESGPSLVKPSQTLSLTCSVTGDSITSGYWNWIRKFPGNKLEYMGYISYSGSTYYNPSLKGRVSITRDTSKNQYYLQLNSVTTEDTATYYCQRHVIYDYTWFAYWGQGTLVTVSA
VL: QIVLTQSPAIMSASPGEKVTISCSASSSVGYMYWLQQKPGSSPKPWIYRTSILASGVPARFSGSGSGTSYSLTISSMEAEDAATYYCQQYQSYPLTFGAGTKLELK
notes: hybridoma IgG
In the case of B2, the “MFI ratio over secondary antibody” value in experiment [3] is 1.2. The values for the OD450 in experiment [4] and in experiment [5] were 0.103 and 0.0949, respectively. Moreover, the binding result in experiment [6] is given as “no binding”.

B3: CD98HC.04.065 (antibody, V domains shown)
VH: B2 VH with S56R, G65S
VL: B2 VL with G30H, L35F, A59D
notes: hybridoma IgG
For the molecule B3, the “MFI ratio over secondary antibody” value in experiment [3] is 1.2. Also, the OD450 in experiment [4] came to 0.0984; in experiment [5], 0.1. Besides, the binding result in experiment [6] is listed as “no binding”.

B4: CD98HC.04.054 (antibody, V domains shown)
VH: QVQLQQSAAELARPGASVKMSCETSGYTFTRYTMNWVKQRPGQGLDWIGYINPSSGYAEYNQKFRGKTTLTADKSSSTAYIQLNSLTSEDSAVYYCVRYDGNYVYWGQGTTLTVSS
VL: DIVMTQSQKFMSTSFGDRVDITCKASQNVGSAVAWYQQKPGQSPKLLIYSASNRYTGVPDRFTGSGSGTDFTLTINNMQSADLADYFCQQYNFYPLTFGAGTKLDLK
notes: hybridoma IgG
In the case of B4, the “MFI ratio over secondary antibody” value in experiment [7] worked out at 52; in experiment [8] it was 218; in experiment [3] it was 1.2. Moreover, in experiment [6], the binding result is on record as “no binding”.
